Test results: the supplement of paper PMC10567573
± gives the standard deviation.

Assay: protein stability index of a GFP-peptide fusion (GPS, HEK-293T) (PSI 1-6); higher = more stable
Details: c terminus: a fixed tail appended
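Note: 24-mer peptide tiles fused after GFP, lentivirally expressed, FACS-sorted into six equal bins by GFP/DsRed ratio, decoded by Illumina sequencing, PSI is the read-weighted mean bin number.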

Row | Sequence | protein stability index (treatment: DMSO) | protein stability index (treatment: MLN4924 1 uM, 8 h)
1 | YQEIFQQLQRSWVKMDQKSKHLKE [TRIM43] | 2.41 ± 0.32 | 2.6 ± 0.32
2 | ISRLEQCGINANDVKKLEEAGFHT [RAD51] | 3.58 ± 0.15 | 3.9 ± 0.11
3 | KHLLNLGVEIDEINVYGNTALHIA [ANKRD44] | 2.19 ± 0.34 | 2.07 ± 0.48
4 | AVYDGSSSVEDLKAKFCSTVANDV [NETO1] | 4.03 ± 0.19 | 4.17 ± 0.31
5 | HSKLLVSGFWGVARHFNYVGDLMG [DHCR7] | 2.34 ± 0.53 | 2.33 ± 0.44
6 | LIGDLIGHSSSVEMFLYFEDHGLV [WDR41] | 2.57 ± 0.51 | 2.83 ± 0.81
7 | IPIHGKGNFPTMEVKPKDIIHVVK [TENT5D] | 2.86 ± 0.24 | 2.93 ± 0.2
8 | YCFCGWIVLGPYHVKFRSLSMVSE [MCOLN1] | 2.85 ± 1.1 | 3.1 ± 1.3
9 | GFGLAHTPLEPDAKDLPCDSKPES [TBX5] | 5.38 ± 0.51 | 5.47 ± 0.43
10 | ELRDSSAYHVPNRTLASGRLLSYR [DNAAF3] | 3.04 ± 0.11 | 3.25 ± 0.096
11 | TFPDLESEFQAALSRKVAKLVHFL [MAGEA6] | 2.27 ± 0.2 | 2.22 ± 0.21
12 | RLWSHRSYKARLPLRLFLIIANTM [SCD] | 2.29 ± 0.54 | 2.13 ± 0.23
13 | GGAAGAGWCIFVYNLSPEADESVL [ELAVL3] | 3.22 ± 1.1 | 2.52 ± 0.91
14 | FKRRRVRRRRMETIVFLDKEVFAS [PCMTD2] | 2.62 ± 0.16 | 2.86 ± 0.33
15 | DLLNVCMRHVEKMCKADLSRNFIE [TRIM29] | 3.09 ± 0.21 | 2.87 ± 0.28
16 | LSLSNATVLTRSLFLGRILSLTSS [FANCE] | 3.06 ± 0.64 | 2.88 ± 0.34
17 | NLTSPASITFTTGLEAPRDLEAKE [TNXB] | 5.21 ± 0.51 | 5.51 ± 0.36
18 | LMLAGMGLHYIAFRKVKQMHLNFM [DNAJC4] | 2.45 ± 0.82 | 2.41 ± 0.33
19 | KQPLRKYVTPSDFDQLKQFLTFDK [EFHC1] | 2.94 ± 0.18 | 3.02 ± 0.17
20 | RLRGKLRAEIENLHRTFDPHFLRV [MOG] | 2.48 ± 0.18 | 2.44 ± 0.28
21 | YDVAMNRAKDLVELDPEVEGTKPS [GOLPH3L] | 5.54 ± 0.2 | 5.603 ± 0.052
22 | PADCKRKEEAGAPGGGAGMAAGFP [CEBPB] | 5.12 ± 0.35 | 5.29 ± 0.098
23 | MATLNRTAAGLMHTFNAHAATDIT [SEPHS2] | 2.95 ± 0.053 | 3.01 ± 0.19

Row | Sequence | protein stability index (treatment: DMSO) | protein stability index (treatment: MLN4924 1 uM, 8 h)
24 | KMNLYESFAQATQLGDLHTCLMMD [INTS3] | 2.5 ± 0.2 | 2.58 ± 0.37
25 | RLYRLKLEELTKLQNNCTSSITRQ [TMEM120A] | 2.62 ± 0.092 | 2.81 ± 0.3
26 | PGGGRLLLSTSLDAKDELEERLER [INTS3] | 4.94 ± 0.3 | 4.84 ± 0.15
27 | YMNFRVKACNKAVAGEFSEPVTLE [FSD1] | 3.03 ± 0.29 | 2.93 ± 0.46
28 | DLQVNRNFSLATNTKYSVYIYVYF [R3HDM1] | 2.59 ± 0.59 | 2.88 ± 0.078
29 | ALRLAELARRRRRRQARREAEADK [NOP53] | 4.12 ± 0.21 | 4.37 ± 0.82
30 | KINVNEIFYDLVRQINRKTPVPGK [RAP1B] | 2.44 ± 0.4 | 2.25 ± 0.26
31 | MCTKMEQPFYHDDSYTATGYGRAP [JUNB] | 3.19 ± 0.19 | 3.25 ± 0.24
32 | DLVRLLQNVARIPEFELLWKDIIH [INTS3] | 2.61 ± 0.65 | 2.15 ± 0.19
33 | YEKTPFDQLAFIEELFSLMVVNRL [EID1] | 2.68 ± 0.36 | 3.01 ± 0.43
34 | REVAKELGIPYYETSVVAQFGIKD [RHOBTB2] | 3.2 ± 0.43 | 3.39 ± 0.27
35 | RNLARSQSVKMKDKLKIDLLPDGR [TAF7L] | 4.09 ± 0.28 | 4.25 ± 0.2
36 | RVDPTRVNEFGMSGEDPTAAAPVA [CLPTM1] | 4.98 ± 0.099 | 5.02 ± 0.2
37 | SRPVKGQVVTVHLQTSLENGTRVQ [FKBP8] | 3.38 ± 0.45 | 3.51 ± 0.26
38 | PGPGIGGDAHFDEDERWTNNFREY [MMP1] | 4.14 ± 0.39 | 4.2 ± 0.35
39 | DLRGVCVSGKCEPIGCDGVLFSTH [ADAMTSL2] | 2.4 ± 0.091 | 2.75 ± 0.59
40 | KDEWHKVFDLPESLGGIRACTLTV [KLHL13] | 2.89 ± 0.63 | 2.89 ± 0.83
41 | VGDILWEHLEILQKEDVKPYQVNG [ETS1] | 3.1 ± 0.27 | 3.05 ± 0.33
42 | RFLGEGHHRVQENQMDKARRHPQG [CHGB] | 4.5 ± 0.44 | 4.62 ± 0.38
43 | CLTLTPRPATEAELLTCHSAEYVG [HDAC6] | 3.48 ± 0.16 | 3.43 ± 0.16
44 | LICKYDFIMLSCVQLQRIPLSAVY [TPRG1] | 3.2 ± 0.37 | 3.36 ± 0.83
45 | QYEGHVNEYAYLPLHVHEEEGILV [DCAF4] | 3.19 ± 0.13 | 3.17 ± 0.27
46 | ASHCLMNHPDLAKDLTEYLKVRSH [PDS5B] | 3.05 ± 0.27 | 3.01 ± 0.18

Row | Sequence | protein stability index (treatment: DMSO) | protein stability index (treatment: MLN4924 1 uM, 8 h)
47 | PPDSKEGIVVESNHDSHMAKERAH [PDZK1] | 5.55 ± 0.36 | 5.55 ± 0.23
48 | SESGKLVTKMFQKIQDLIDDKDAL [TRIP13] | 3.43 ± 0.17 | 3.42 ± 0.2
49 | TMEDTLMTVKQYEAARLEYDAYRT [ARFIP2] | 3.88 ± 0.27 | 3.74 ± 0.3
50 | LSYRNGYAIVRRPTVGIGGDRLQF [EFHC1] | 2.23 ± 0.24 | 2.35 ± 0.29
51 | NQIMPKAGLLIIVLAIIAREGDCA [MAGEA3] | 3.02 ± 0.55 | 3.02 ± 0.76
52 | SFVTGSHVGELIIWDALDWTMQAY [WDR41] | 2.9 ± 0.72 | 3.21 ± 1.5
53 | EVVPALEPTETLLSEKEINAREES [BCL2L13] | 5.6 ± 0.13 | 5.58 ± 0.22
54 | ADGAWVVKMFYSFQDKRNLYLIME [STK38L] | 3.11 ± 1 | 2.99 ± 0.79
55 | GSKCSPEDLATAYNNRGQIKYFRV [TTC32] | 2.16 ± 0.21 | 2.13 ± 0.37
56 | EEGIVSPSDLDLVMSEGLGMRYAF [CRYL1] | 2.27 ± 0.42 | 3.02 ± 0.31
57 | RGKIHAFRGQILGFWEEERPFWEE [CCDC70] | 2.42 ± 0.14 | 2.47 ± 0.24
58 | KWRKVGRSLQRGCRALRDPALDSL [TRADD] | 2.19 ± 0.16 | 2.54 ± 0.13
59 | FSTILHLLLGSPHPAATALHAELC [LPCAT4] | 3.14 ± 0.47 | 2.73 ± 0.53
60 | NEVLSSDILPRWAIIGWLLTTCTS [INTS3] | 2.99 ± 0.82 | 2.91 ± 0.49
61 | KGLSGGFGSRSLYSLGGVRSLNVA [KRT71] | 2.58 ± 0.26 | 2.41 ± 0.39
62 | QLQFLIRYHRFISFALYLAGFCMF [CDS1] | 2.07 ± 0.062 | 2.32 ± 0.52
63 | TAILIECGADVNVRDSDDNSPLHI [FEM1C] | 3.43 ± 0.34 | 3.5 ± 0.3
64 | PPPPPSYDPDYIQCPYCQRRFNEN [ZC2HC1A] | 5.27 ± 0.34 | 5.44 ± 0.17
65 | AMEPDRKAAVSHWQQQSYLDSGIH [CTNNB1] | 3.91 ± 0.31 | 3.95 ± 0.32
66 | TVGIYFGLVYRIHSVLQGFIPLFQ [TMEM40] | 3.16 ± 0.58 | 3.16 ± 0.54
67 | MVGLILGPFGVNHGVELHSDVIEY [PCMTD2] | 3 ± 1.1 | 2.82 ± 0.64
68 | CSSRPLQKGSHPMCKEHEDEKINI [TRIM63] | 4.81 ± 0.093 | 4.84 ± 0.24
69 | LERNPNGVADGVIKSVLWQTLQAL [CDKL4] | 2.28 ± 0.94 | 2.56 ± 1.1

Row | Sequence | protein stability index (treatment: DMSO) | protein stability index (treatment: MLN4924 1 uM, 8 h)
70 | LPKEASDGTGASQEPPTTDSQEAQ [TOR1AIP2] | 5.65 ± 0.29 | 5.54 ± 0.2
71 | SDQDPRVRTAAIKAMLQLHERGLK [INTS4] | 3.67 ± 0.31 | 3.79 ± 0.39
72 | PDDLLTTLDDTCDLFAPLVQETNK [ATF4] | 5.12 ± 0.23 | 5.14 ± 0.22
73 | RYFGARAILGEQRPRQRQRVYPKC [TCF25] | 3.84 ± 0.32 | 3.58 ± 0.21
74 | RLVESLSTQIRALTEQQEQLRGQL [RASAL3] | 2.38 ± 0.21 | 2.34 ± 0.26
75 | EETRQKQLLADEKMKQLTEETEVL [TRIM35] | 5.65 ± 0.11 | 5.57 ± 0.22
76 | TQTSEECNGILTEKMEEEEQTCDP [ZNF396] | 5.5 ± 0.22 | 5.71 ± 0.17
77 | PDAPDHTSETSHSPLYADPYTPPA [PLEKHN1] | 5.22 ± 0.3 | 5.01 ± 0.28
78 | ILWDTLLRLCAWGLASWPLARGIH [POMT2] | 2.823 ± 0.003 | 3.27 ± 1.2
79 | SAPGACEEPTERGNLEVGEPQSEP [FBXO34] | 5.67 ± 0.27 | 5.7 ± 0.17
80 | FSDVTFILDDGTISAHKPLLISSC [RHOBTB2] | 2.47 ± 0.15 | 2.25 ± 0.29
81 | LSESETGPMEEVERQVLPDPEVLE [PBXIP1] | 5.6 ± 0.31 | 5.61 ± 0.16
82 | SADPARGLPRSRDCRVDLGSEVYR [PDLIM4] | 3.74 ± 0.23 | 3.83 ± 0.09
83 | DSKDCILEPLSLPESPGGTTTLEG [ZNF277] | 5.36 ± 0.19 | 5.32 ± 0.25
84 | EGNQKGEQATSLAILRVIRLVRVF [KCNA1] | 2.2 ± 0.37 | 2.28 ± 0.37
85 | VSSVTQVEVDENAYRCGSGMQMAE [NET1] | 4.2 ± 0.3 | 4.42 ± 0.11
86 | NSDDSYTCECLEGFRLAEDGKRCR [MATN2] | 3.54 ± 0.34 | 4.12 ± 0.67
87 | PSNARGPILSRSTSTGSAASSGSN [SPRY1] | 4.96 ± 0.17 | 5.01 ± 0.12
88 | HMTRHLEESEKAMQERVQRLEAAR [LRRC45] | 5.15 ± 0.06 | 5.06 ± 0.19
89 | MKFAQVFGCFFYVYYIFERLCAPL [SOAT1] | 2.89 ± 0.54 | 2.87 ± 0.51
